The conditions of the series: Pseudomonas aeruginosa (strain ATCC 15692 / DSM 22644 / CIP 104116 / JCM 14847 / LMG 12228 / 1C / PRS 101 / PAO1); pH 7.03; 20 °C; Thermal; DSC; phosphate buffer 10 mM; sodium chloride 40 microM; reversible: no; whole UniProt chain shown.

B1: Azurin wild type, P00282 (protein)
chain: MLRKLAAVSLLSLLSAPLLAAECSVDIQGNDQMQFNTNAITVDKSCKQFTVNLSHPGNLPKNVMGHNWVLSTAADMQGVVTDGMASGLDKDYLKPDDSRVIAHTKLIGSGEKDSVTFDVSKLKEGEQYMFFCTFPGHSALMKGTLTLK
For B1, the “unfolding enthalpy (calorimetric)” value was determined as 14.6 kcal/mol and the unfolding free energy is 14.3 kcal/mol.

The values above are taken from FireProtDB (doi:10.1016/s0006-3495(99)76955-9).
